Source: patent publication US20240270821A1, “GIP/GLP1/GCG TRI-RECEPTOR AGONISTS AND USES THEREOF” (priority 2023, published 2024)
Numbering of substitutions follows the chain as printed.

T1: human GIP receptor (human) (UniProt P48546)
T1 sequence (looked up): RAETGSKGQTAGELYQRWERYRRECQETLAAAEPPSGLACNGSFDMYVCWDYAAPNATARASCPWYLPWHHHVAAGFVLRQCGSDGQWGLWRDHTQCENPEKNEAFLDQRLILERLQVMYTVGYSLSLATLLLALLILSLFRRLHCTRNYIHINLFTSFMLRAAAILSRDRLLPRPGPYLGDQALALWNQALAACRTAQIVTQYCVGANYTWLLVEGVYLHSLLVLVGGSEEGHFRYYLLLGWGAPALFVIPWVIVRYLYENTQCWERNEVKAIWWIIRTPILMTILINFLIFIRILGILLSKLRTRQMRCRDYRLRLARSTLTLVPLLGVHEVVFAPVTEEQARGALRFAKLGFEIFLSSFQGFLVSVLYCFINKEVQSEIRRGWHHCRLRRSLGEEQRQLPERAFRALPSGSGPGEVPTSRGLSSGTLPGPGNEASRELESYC

B1: Example 1209 (peptide)
chain: YXQGTXTSDXSIXLDXXAQXXFIEXLIEGGPSSGEPPPETE
modifications: synthetic construct; SITE 2: note = 2-Aminoisobutyric Acid; SITE 6: note = alpha-methyl-2-fluoro-L-phenylalanine; SITE 10: note = 3-(4-Pyridyl)-L-alanine; SITE 13: note = alpha-methyl-leucine; SITE 16: note = L-ornithine; SITE 17: note = Ornithine is chemically modified through conjugation of the ep
B2: Example 1210 (peptide)
chain: YXQGTXTSDXXIXLDXXAQXEFIEXLVEGGPSSGAPPPSGS
modifications: synthetic construct; SITE 2: note = 2-Aminoisobutyric Acid; SITE 6: note = alpha-methyl-2-fluoro-L-phenylalanine; SITE 10: note = 3-(4-Pyridyl)-L-alanine; SITE 11: note = alpha-methyl-L-serine; SITE 13: note = alpha-methyl-leucine; SITE 16: note = L-ornithine; SITE 17: note = Ornithine is chemically
B3: Example 1211 (peptide)
chain: B2 chain with V27I
modifications: synthetic construct; SITE 2: note = 2-Aminoisobutyric Acid; SITE 6: note = alpha-methyl-2-fluoro-L-phenylalanine; SITE 10: note = 3-(4-Pyridyl)-L-alanine; SITE 11: note = alpha-methyl-L-serine; SITE 13: note = alpha-methyl-leucine; SITE 16: note = L-ornithine; SITE 17: note = Ornithine is chemically
B4: Example 1212 (peptide)
chain: YXQGTXTSDXXIXLDXXAQXEFIEXLIEGGPSSGAPPPSGSE
modifications: synthetic construct; SITE 2: note = 2-Aminoisobutyric Acid; SITE 6: note = alpha-methyl-2-fluoro-L-phenylalanine; SITE 10: note = 3-(4-Pyridyl)-L-alanine; SITE 11: note = alpha-methyl-L-serine; SITE 13: note = alpha-methyl-leucine; SITE 16: note = L-ornithine; SITE 17: note = Ornithine is chemically
B5: Example 1213 (peptide)
chain: YXQGTXTSDXXIXLDXXAQXEFIEXLIEGGPSSGAPPPSGGGE
modifications: synthetic construct; SITE 2: note = 2-Aminoisobutyric Acid; SITE 6: note = alpha-methyl-2-fluoro-L-phenylalanine; SITE 10: note = 3-(4-Pyridyl)-L-alanine; SITE 11: note = alpha-methyl-L-serine; SITE 13: note = alpha-methyl-leucine; SITE 16: note = L-ornithine; SITE 17: note = Ornithine is chemically
B6: Example 1233 (peptide)
chain: B4 chain with X17Q
modifications: not fully specified; synthetic construct; SITE 2: note = 2-Aminoisobutyric Acid; SITE 6: note = alpha-methyl-2-fluoro-L-phenylalanine; SITE 10: note = 3-(4-Pyridyl)-L-alanine; SITE 11: note = alpha-methyl-L-serine; SITE 13: note = alpha-methyl-leucine; SITE 16: note = L-ornithine; SITE 20: note = 3-(4-Pyridyl)-L-alanine
B7: Example 1234 (peptide)
chain: B5 chain with X17Q
modifications: not fully specified; no fatty acid conjugated; synthetic construct; SITE 2: note = 2-Aminoisobutyric Acid; SITE 6: note = alpha-methyl-2-fluoro-L-phenylalanine; SITE 10: note = …; SITE 11: note = alpha-methyl-L-serine; SITE 13: note = alpha-methyl-leucine; SITE 16: note = L-ornithine; SITE 20: note = 3-(4-Pyridyl)-L-alanine
B8: Example 1236 (peptide)
chain: YXQGTXTSDXSIXLDXKAAXAFIEXLLEGGPSSGEPPPS
modifications: synthetic construct; SITE 2: note = 2-Aminoisobutyric Acid; SITE 6: note = alpha-methyl-2-fluoro-L-phenylalanine; SITE 10: note = 3-(4-Pyridyl)-L-alanine; SITE 13: note = alpha-methyl-leucine; SITE 16: note = L-ornithine; SITE 17: note = Lysine is chemically modified through conjugation of the epsil
B9: Example 9 (peptide)
chain: YXQGTFTSDFSKXLDKKAQXAFIEYLLAGGPSSGEPPPGGS
modifications: Aib, αMeL; acylated Lys; C-terminal amide; synthetic construct; SITE 2: note = 2-Aminoisobutyric Acid; SITE 13: note = alpha-methyl-leucine; SITE 17: note = Lysine is chemically modified through conjugation of the epsilon-amino group of the Lysine side chain with (2-[2-(2-Amino-ethoxy)-ethoxy]-acetyl)-(gamma-Glu)-CO-(CH2) 18-CO2H; SITE 20: n
B10: Example 14 (peptide)
chain: B9 chain with E35A, G39S
modifications: non-natural residues, acyl lysine, C-terminal amide; synthetic construct; SITE 2: note = 2-Aminoisobutyric Acid; SITE 13: note = alpha-methyl-leucine; SITE 17: note = Lysine is chemically modified through conjugation of the epsilon-amino group of the Lysine side chain with (2-[2-(2-Amino-ethoxy)-ethoxy]-acetyl)-(gamma-Glu)-CO-(CH2) 18-CO2H; SITE 20: n
B11: Example 20 (peptide)
chain: B9 chain with Y25W, G39S, G40E, S41G
modifications: non-natural residues, acyl lysine, C-terminal amide; synthetic construct; SITE 2: note = 2-Aminoisobutyric Acid; SITE 13: note = alpha-methyl-leucine; SITE 17: note = Lysine is chemically modified through conjugation of the epsilon-amino group of the Lysine side chain with (2-[2-(2-Amino-ethoxy)-ethoxy]-acetyl)-(gamma-Glu)-CO-(CH2) 18-CO2H; SITE 20: n
B12: Example 25 (peptide)
chain: B9 chain with G39S, G40E, S41G
modifications: Aib, αMeL, acylated Lys, C-terminal amide; synthetic construct; SITE 2: note = 2-Aminoisobutyric Acid; SITE 13: note = alpha-methyl-leucine; SITE 17: note = Lysine is chemically modified through conjugation of the epsilon-amino group of the Lysine side chain with (2-[2-(2-Amino-ethoxy)-ethoxy]-acetyl)2-(gamma-Glu)-CO-(CH2 )16-CO2H; SITE 20:
B13: Example 27 (peptide)
chain: B9 chain with E24Q, G39S, G40E, S41G
modifications: Aib, αMeL, acylated Lys, C-terminal amide; synthetic construct; SITE 2: note = 2-Aminoisobutyric Acid; SITE 13: note = alpha-methyl-leucine; SITE 17: note = Lysine is chemically modified through conjugation of the epsilon-amino group of the Lysine side chain with (2-[2-(2-Amino-ethoxy)-ethoxy]-acetyl)-(gamma-Glu)-CO-(CH2) 18-CO2H; SITE 20: n
B14: Example 123 (peptide)
chain: YXQGTFTSDFSXXLDKKAQXAFIEWLLEGGESSGEPPPSGE
modifications: synthetic construct; SITE 2: note = 2-Aminoisobutyric Acid; SITE 12: note = L-ornithine; SITE 13: note = alpha-methyl-leucine; SITE 17: note = Lysine is chemically modified through conjugation of the epsilon-amino group of the Lysine side chain with (2-[2-(2-Amino-ethoxy)-ethoxy]-acetyl)-(gamma-Glu)

molecular target: hGLP-1R (Homo sapiens, UniProt P43220); test: cell-based or functional assay
Sequence (P43220 24-463): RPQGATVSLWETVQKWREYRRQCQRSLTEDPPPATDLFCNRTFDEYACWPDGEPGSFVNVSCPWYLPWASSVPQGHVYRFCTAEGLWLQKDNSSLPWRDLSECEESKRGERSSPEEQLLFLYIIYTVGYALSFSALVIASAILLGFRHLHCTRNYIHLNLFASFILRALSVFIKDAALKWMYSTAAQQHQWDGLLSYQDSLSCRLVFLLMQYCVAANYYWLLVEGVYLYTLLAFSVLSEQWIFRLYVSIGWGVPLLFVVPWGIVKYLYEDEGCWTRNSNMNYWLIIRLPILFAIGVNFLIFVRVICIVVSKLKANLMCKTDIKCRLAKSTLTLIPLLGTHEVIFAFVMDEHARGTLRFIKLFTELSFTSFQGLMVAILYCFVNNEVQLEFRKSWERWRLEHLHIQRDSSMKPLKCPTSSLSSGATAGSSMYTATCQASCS

Point of comparison: B9, Relative cAMP EC50 1.61 nM. Against it:
- B1 — 3.9-fold lower, 0.41 nM
- B2 — 4.3-fold lower, 0.375 nM
- B3 — 5.8-fold lower, 0.276 nM
- B4 — 4.5-fold lower, 0.357 nM
- B5 — 3.8-fold lower, 0.423 nM
- B6 — within 1.5-fold, 1.09 nM
- B7 — within 1.5-fold, 1.17 nM
- B8 — 5.3-fold lower, 0.304 nM
- B10 — within 1.5-fold, 1.67 nM
- B11 — 1.5-fold higher, 2.45 nM
- B12 — 2.1-fold higher, 3.34 nM
- B13 — within 1.5-fold, 2.33 nM
- B14 — 3-fold higher, 4.82 nM

Point of comparison: B4, cAMP Rel EC50 (1% HSA) 38.2 nM. Against it:
- B1 — within 1.5-fold, 37.7 nM
- B2 — within 1.5-fold, 38.1 nM
- B3 — within 1.5-fold, 33.2 nM
- B5 — within 1.5-fold, 44 nM
- B6 — 36-fold lower, 1.06 nM
- B7 — 33-fold lower, 1.15 nM
- B8 — 2.5-fold higher, 95.8 nM

Point of comparison: B9, cAMP Rel EC50 (in the presence of 1% HSA) 402 nM. Against it:
- B10 — 1.7-fold lower, 232 nM
- B11 — within 1.5-fold, 326 nM
- B12 — within 1.5-fold, 520 nM
- B13 — within 1.5-fold, 464 nM

Binder B14 has a cAMP Rel EC50, nM (in the presence of 1% HSA) of 1500 nM.

molecular target: T1, human GIP receptor (human); test: cell-based or functional assay

Point of comparison: B10, Relative cAMP EC50 0.17 nM. Against it:
- B1 — 21-fold lower, 0.00819 nM
- B2 — 24-fold lower, 0.00704 nM
- B3 — 29-fold lower, 0.00592 nM
- B4 — 24-fold lower, 0.00702 nM
- B5 — 24-fold lower, 0.00721 nM
- B6 — 14-fold lower, 0.012 nM
- B7 — 13-fold lower, 0.0135 nM
- B8 — 3.3-fold lower, 0.052 nM
- B9 — within 1.5-fold, 0.205 nM
- B11 — 2.2-fold higher, 0.381 nM
- B12 — within 1.5-fold, 0.128 nM
- B13 — 2.4-fold higher, 0.41 nM
- B14 — 3.1-fold higher, 0.531 nM

Point of comparison: B4, cAMP Rel EC50 (1% HSA) 0.614 nM. Against it:
- B1 — within 1.5-fold, 0.565 nM
- B2 — within 1.5-fold, 0.635 nM
- B3 — within 1.5-fold, 0.489 nM
- B5 — within 1.5-fold, 0.616 nM
- B6 — 62-fold lower, 0.00988 nM
- B7 — 56-fold lower, 0.011 nM
- B8 — 19-fold higher, 11.9 nM

Point of comparison: B9, cAMP Rel EC50 (in the presence of 1% HSA) 41.8 nM. Against it:
- B10 — within 1.5-fold, 34.7 nM
- B11 — within 1.5-fold, 42.3 nM
- B12 — 2.1-fold lower, 19.8 nM
- B13 — 1.7-fold higher, 72.3 nM

Work on B14 yielded a cAMP Rel EC50, nM (in the presence of 1% HSA) of 94.6 nM.

molecular target: human glucagon receptor (human) (UniProt P47871); test: cell-based or functional assay
Sequence (P47871 26-477): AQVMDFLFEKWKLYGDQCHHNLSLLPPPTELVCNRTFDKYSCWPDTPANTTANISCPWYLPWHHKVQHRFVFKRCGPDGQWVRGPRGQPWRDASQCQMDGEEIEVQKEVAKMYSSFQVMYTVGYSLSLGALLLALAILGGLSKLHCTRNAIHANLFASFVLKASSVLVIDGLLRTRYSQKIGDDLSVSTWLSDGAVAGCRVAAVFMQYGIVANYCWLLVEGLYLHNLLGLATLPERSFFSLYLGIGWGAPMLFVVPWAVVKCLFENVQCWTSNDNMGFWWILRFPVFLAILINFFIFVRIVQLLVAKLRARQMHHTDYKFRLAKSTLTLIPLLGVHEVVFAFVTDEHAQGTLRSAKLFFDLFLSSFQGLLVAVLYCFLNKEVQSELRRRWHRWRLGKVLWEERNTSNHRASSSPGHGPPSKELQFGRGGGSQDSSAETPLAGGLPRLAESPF

Point of comparison: B7, Relative cAMP EC50 11.6 nM. Against it:
- B1 — 12-fold lower, 0.97 nM
- B2 — 5.2-fold lower, 2.25 nM
- B3 — 8-fold lower, 1.45 nM
- B4 — 6.8-fold lower, 1.71 nM
- B5 — 6.9-fold lower, 1.69 nM
- B6 — within 1.5-fold, 9.48 nM
- B8 — 12-fold lower, 0.947 nM
- B9 — 1.6-fold lower, 7.19 nM
- B10 — 1.6-fold lower, 7.23 nM
- B11 — within 1.5-fold, 15.4 nM
- B12 — 1.7-fold lower, 6.8 nM
- B13 — within 1.5-fold, 8.91 nM
- B14 — 2.5-fold lower, 4.55 nM

Point of comparison: B5, cAMP Rel EC50 (1% HSA) 268 nM. Against it:
- B1 — 2.2-fold lower, 124 nM
- B2 — within 1.5-fold, 288 nM
- B3 — within 1.5-fold, 211 nM
- B4 — within 1.5-fold, 230 nM
- B6 — 27-fold lower, 9.9 nM
- B7 — 23-fold lower, 11.7 nM
- B8 — 1.9-fold higher, 502 nM

Point of comparison: B10, cAMP Rel EC50 (in the presence of 1% HSA) 1420 nM. Against it:
- B9 — within 1.5-fold, 1430 nM
- B11 — 2.4-fold lower, 587 nM
- B12 — 1.5-fold lower, 939 nM
- B13 — within 1.5-fold, 1180 nM

B14 showed a cAMP Rel EC50, nM (in the presence of 1% HSA) of 1740 nM.
